Reference: PMC13506345, “Loss of cellular RNA homeostasis contributes to MDA5 activation during virus infection” (Nature Immunology, 2026)
Read-outs that look alike come from different tables or passages of the source.

Tests used:
[1] = molecular target: T1, melanoma differentiation-associated protein 5 (MDA5) (Homo sapiens (THP1 cells, endogenous), UniProt Q9BYX4)
[2] = molecular target: T1, melanoma differentiation-associated …; assay: immunoprecipitation; first IP (IP1): antibody A coupled to Dynabeads, incubated with THP1 cell lysate (native MDA5) 2 h at 4 °C, high-salt washes; IP analysed by western blot for MDA5; details: one partner purified
[3] = molecular target: T1, melanoma differentiation-associated …; assay: immunoprecipitation; second IP (IP2): MDA5 eluted from IP1 with urea cracking buffer (6 M urea, 1% SDS, 65 °C), neutralised with T-20 IP buffer, incubated with antibody B on Protein G Dynabeads 2 h at 4 °C; IP analysed by western blot for MDA5; details: both partners purified

T1 sequence (Q9BYX4 whole entry): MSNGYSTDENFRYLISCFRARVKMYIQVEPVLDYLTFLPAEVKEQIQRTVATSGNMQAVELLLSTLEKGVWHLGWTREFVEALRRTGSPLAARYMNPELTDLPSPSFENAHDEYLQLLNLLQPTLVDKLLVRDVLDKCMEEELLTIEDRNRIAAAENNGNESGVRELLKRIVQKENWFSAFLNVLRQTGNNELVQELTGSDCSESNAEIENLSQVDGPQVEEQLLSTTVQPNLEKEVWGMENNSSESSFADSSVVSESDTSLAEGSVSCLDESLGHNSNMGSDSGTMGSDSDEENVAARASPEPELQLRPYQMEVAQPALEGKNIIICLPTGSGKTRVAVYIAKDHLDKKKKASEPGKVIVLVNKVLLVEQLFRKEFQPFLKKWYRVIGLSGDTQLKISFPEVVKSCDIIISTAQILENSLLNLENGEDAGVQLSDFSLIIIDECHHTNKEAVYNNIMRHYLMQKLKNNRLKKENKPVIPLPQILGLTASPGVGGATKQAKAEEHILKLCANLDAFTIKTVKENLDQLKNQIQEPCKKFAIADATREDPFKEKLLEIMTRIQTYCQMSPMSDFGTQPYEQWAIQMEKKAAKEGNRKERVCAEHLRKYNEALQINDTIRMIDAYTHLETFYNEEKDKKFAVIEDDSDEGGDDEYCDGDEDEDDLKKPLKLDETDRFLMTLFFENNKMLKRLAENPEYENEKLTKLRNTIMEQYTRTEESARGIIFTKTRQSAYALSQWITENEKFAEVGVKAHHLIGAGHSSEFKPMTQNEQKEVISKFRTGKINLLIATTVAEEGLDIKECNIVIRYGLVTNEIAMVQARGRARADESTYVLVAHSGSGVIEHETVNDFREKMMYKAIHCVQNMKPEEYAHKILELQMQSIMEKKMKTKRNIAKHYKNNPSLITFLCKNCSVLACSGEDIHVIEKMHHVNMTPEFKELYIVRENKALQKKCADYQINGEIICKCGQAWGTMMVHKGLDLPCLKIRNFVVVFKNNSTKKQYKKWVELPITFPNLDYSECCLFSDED

B1: mAb 17 (antibody, V domains shown)
VH: QVQLQQSGAELVRPGASVTLSCKASGYTFADYEIHWVRQTPVHGLEWIGAIGPETGNTAYNQKFKGKATLTVDKSSSTVYMDLRSLTSEDSAVYYCTRGRILDWGQGTLVTVSA
VL: DVVMTQTPLSLPVSLGDQASISCRSSQSLVHSNGNTYLHWYLQKPGQSPKLLIYKVSKRFSGVPDRFSGSGSGTDFTLKISRVEAEDLGVYFCSQSTHIPYTFGGGTKLEIK
- binding result [1]: binds

B2: anti-MDA5 monoclonal antibody A (clone 16) (antibody, V domains shown)
VH: QVQLQQSGPDLVRPGTSVKMSCKAAGYTFTNSWIGWLKQRPGHGLEWIGDIYPGGGDTNSNENFKGKATLTADTSSSTAYMQLSSLTSEDSAVYYCARSTVIMRGYFDVWGAGTMVTVSS
VL: DIQMTQSPASLSASVGETVTITCRASGNIHNFLAWYQQKQGKSPQLLVYNAKTLADGVPSRFSGSGSGTQYSLKINSLQPEDFGSYYCQHFWSTPLTFGAGTKLELK
notes: Monoclonal antibody raised against MDA5 (generated by C. Song and B. Jin); covalently coupled to Dynabeads for the IP; also called Ab A; monoclonal antibody 16; source: hybridoma cells grown in bioreactors (CELLline)
- binding result [2]: binds

B3: anti-MDA5 monoclonal antibody B (clone 22) (antibody, V domains shown)
VH: QVQLQQSGPELVKPGASVKMSCKASGYTFTDYVISWVKQRTGQGLEWIGEIYPGSGNTFYNEKFKGKATLTADKSSNTAYMQLSSLTSEDSAVYFCARSGDYDLDYWGQGTSVTVSS
VL: EIVLTQSPTTMAASPGEKITITCSASSSISSNYLHWYQQKPGFSPKLLIYRTSNLASGVPARFSGSGSGTSYSLTIGTMEAEDVATYYCQQGGSIPLTFGAGTKLELK
notes: Hybridoma was non-recoverable; In some radiolabeling experiments pooled ascites fluids from several hybridoma clones including antibody B were used instead; Preincubated with Protein G Dynabeads for the IP; also called Ab B; monoclonal antibody 22
- binding result [3]: binds
